The values below come from IntAct's records for PubMed 22632968.

The target of assay [1] is sun1_human SUN1 (UniProt O94901).
Assay [2] concerns the target sun2_human SUN2 (UniProt Q9UH99).
The target is the same in assay [3]. This is another data set of the same source.
Assay [4] concerns the target sun1_human SUN1 (UniProt O94901). The source holds these as a separate data set.
The target is the same in assay [5]. The source holds these as a separate data set.
The target of assay [6] is sun2_human SUN2 (UniProt Q9UH99). This is another data set of the same source.
The target is the same in assay [7]. The source holds these as a separate data set.

Chain of sun2_human SUN2 (Q9UH99 whole entry): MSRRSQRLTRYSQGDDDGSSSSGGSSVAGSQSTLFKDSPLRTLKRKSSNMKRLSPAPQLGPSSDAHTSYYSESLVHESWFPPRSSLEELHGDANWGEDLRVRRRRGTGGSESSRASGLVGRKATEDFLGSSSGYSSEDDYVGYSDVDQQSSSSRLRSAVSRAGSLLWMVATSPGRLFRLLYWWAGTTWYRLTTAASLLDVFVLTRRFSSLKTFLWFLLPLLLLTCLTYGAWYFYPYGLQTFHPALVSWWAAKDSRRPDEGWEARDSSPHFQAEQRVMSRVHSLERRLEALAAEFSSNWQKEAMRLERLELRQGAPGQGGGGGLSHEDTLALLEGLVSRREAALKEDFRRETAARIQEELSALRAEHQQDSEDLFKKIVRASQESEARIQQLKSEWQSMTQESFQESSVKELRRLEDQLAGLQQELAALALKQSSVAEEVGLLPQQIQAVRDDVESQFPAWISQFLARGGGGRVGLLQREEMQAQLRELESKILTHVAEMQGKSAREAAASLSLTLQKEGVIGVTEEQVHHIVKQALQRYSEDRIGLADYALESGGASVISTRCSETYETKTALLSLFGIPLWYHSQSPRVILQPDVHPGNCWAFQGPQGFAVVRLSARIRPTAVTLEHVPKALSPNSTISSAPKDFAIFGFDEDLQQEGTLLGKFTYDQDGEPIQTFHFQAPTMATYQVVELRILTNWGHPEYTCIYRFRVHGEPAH
Chain of sun1_human SUN1 (O94901 whole entry): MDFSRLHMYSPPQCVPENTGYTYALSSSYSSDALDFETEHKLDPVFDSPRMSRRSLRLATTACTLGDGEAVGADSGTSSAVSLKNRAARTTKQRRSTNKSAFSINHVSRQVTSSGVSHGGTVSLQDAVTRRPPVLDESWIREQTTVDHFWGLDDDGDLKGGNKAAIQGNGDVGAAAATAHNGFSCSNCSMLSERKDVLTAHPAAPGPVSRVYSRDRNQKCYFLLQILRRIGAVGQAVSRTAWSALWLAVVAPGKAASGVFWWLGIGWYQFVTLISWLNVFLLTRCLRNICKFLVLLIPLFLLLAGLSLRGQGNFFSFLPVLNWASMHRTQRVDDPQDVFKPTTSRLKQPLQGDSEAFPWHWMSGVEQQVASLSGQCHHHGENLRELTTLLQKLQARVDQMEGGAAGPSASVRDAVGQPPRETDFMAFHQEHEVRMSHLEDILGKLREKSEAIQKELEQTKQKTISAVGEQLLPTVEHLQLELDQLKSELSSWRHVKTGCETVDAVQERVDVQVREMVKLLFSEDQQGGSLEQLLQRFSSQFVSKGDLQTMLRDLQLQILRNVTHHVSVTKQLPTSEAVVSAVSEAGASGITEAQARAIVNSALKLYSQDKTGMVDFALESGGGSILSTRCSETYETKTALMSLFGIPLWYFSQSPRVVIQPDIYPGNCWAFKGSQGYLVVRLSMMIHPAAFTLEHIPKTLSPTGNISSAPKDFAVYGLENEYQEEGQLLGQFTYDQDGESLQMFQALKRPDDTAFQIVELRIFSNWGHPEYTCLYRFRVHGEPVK

Take “Nesprin-2 (Homo sapiens), Q8WXH0-1 C6862S”: the “effect of a mutation on the interaction” value in the assay with sun1_human SUN1 [1] and with sun2_human SUN2 [2] was “disrupting interaction strength” throughout.
Consider Nesprin-2 (Homo sapiens), Q8WXH0 Y6878A, for which the “effect of a mutation on the interaction” value with sun2_human SUN2 [3] is listed as “disrupting interaction strength”.
On the same count and under the same terms, next, Nesprin-2 (Homo sapiens), Q8WXH0 P6883A: “disrupting interaction strength”; Nesprin-2 (Homo sapiens), Q8WXH0 L6876A: “disrupting interaction strength”.
“Nesprin-1 (Homo sapiens), Q8NF91-1 C8774S”: the “effect of a mutation on the interaction” value in the assay with sun1_human SUN1 [4] was “disrupting interaction strength”; with sun1_human SUN1 [5], “disrupting interaction”; with sun2_human SUN2 [6] it was “decreasing interaction strength”; in the assay with sun2_human SUN2 [7] it was “disrupting interaction strength”.
